{"source": "patent US20140286957A1", "about": "(Teva, published 2014)", "key": {"[1]": {"target": "T1, Human CD1d on cells (human, UniProt P15813 20-335)", "T1 sequence (looked up)": "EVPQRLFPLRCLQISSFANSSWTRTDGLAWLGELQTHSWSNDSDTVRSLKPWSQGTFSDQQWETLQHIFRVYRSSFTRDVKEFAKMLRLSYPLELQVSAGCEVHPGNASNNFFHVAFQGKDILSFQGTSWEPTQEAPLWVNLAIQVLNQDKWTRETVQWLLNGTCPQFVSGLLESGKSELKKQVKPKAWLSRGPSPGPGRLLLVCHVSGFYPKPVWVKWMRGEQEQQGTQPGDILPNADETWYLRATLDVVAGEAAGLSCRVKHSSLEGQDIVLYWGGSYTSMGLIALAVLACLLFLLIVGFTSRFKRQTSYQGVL", "assay": "cell-based or functional assay"}, "[2]": {"target": "T1, Human CD1d on cells", "assay": "cell-based or functional assay", "remark": "listed apart in the source"}, "[3]": {"target": "T1, Human CD1d on cells", "assay": "cell-based or functional assay", "remark": "listed apart in the source"}, "[4]": {"target": "T1, Human CD1d on cells", "assay": "cell-based or functional assay", "remark": "listed apart in the source"}, "[5]": {"target": "T1, Human CD1d on cells", "assay": "cell-based or functional assay", "remark": "listed apart in the source"}, "[6]": {"target": "T1, Human CD1d on cells", "assay": "cell-based or functional assay", "remark": "listed apart in the source"}, "[7]": {"target": "T1, Human CD1d on cells", "assay": "cell-based or functional assay", "remark": "listed apart in the source"}, "[8]": {"target": "T1, Human CD1d on cells", "assay": "cell-based or functional assay", "remark": "listed apart in the source"}, "[9]": {"target": "T1, Human CD1d on cells", "assay": "cell-based or functional assay", "remark": "listed apart in the source"}, "[10]": {"target": "T1, Human CD1d on cells", "assay": "cell-based or functional assay", "remark": "listed apart in the source"}, "[11]": {"target": "T1, Human CD1d on cells", "assay": "cell-based or functional assay", "remark": "listed apart in the source"}, "[12]": {"target": "T1, Human CD1d on cells", "assay": "cell-based or functional assay", "remark": "listed apart in the source"}, "[13]": {"target": "T2, CD1d tetramer loaded with α-GalCer (ProImmune) (UniProt P15813 20-301, limits assumed)", "T2 construct": "Bought reagent; also called fluorochrome-conjugated CD1d tetramer", "T2 sequence (looked up)": "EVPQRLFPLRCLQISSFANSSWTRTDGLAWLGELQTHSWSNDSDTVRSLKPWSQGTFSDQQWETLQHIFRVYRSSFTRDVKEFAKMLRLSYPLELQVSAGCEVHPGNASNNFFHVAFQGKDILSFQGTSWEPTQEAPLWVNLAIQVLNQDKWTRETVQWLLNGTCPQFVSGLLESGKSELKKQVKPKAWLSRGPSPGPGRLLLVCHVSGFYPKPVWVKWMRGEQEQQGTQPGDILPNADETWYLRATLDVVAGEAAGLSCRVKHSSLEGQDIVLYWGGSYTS", "assay": "flow cytometry, inhibition of CD1d tetramer (10 nM) binding to NKTCR on J.RT3-T3.5 cells", "procedure": "To perform the assay, antibodies were prepared at decreasing concentrations from 10 μg/mL in 0.1% bovine serum albumin (BSA) in cold 1×PBS at pH 7.4. […] Wash steps were done in 0.1% BSA in 1×PBS. Data were acquired by flow cytometry and analyzed using flow cytometry analysis software (FlowJo® Treestar, Inc.)."}, "[14]": {"target": "T3, Human CD1d/β2M (human, UniProt P15813 20-301; P61769 21-119)", "T3 construct": "also called hCD1d; recombinant human CD1d", "assay": "direct ELISA, plate coated with 1 µg/mL human CD1d, HRP anti-human kappa detection"}}, "note": "Values joined by “and” are separate entries in the source; they are usually repeats but may differ in a detail not shown here. Equal values may be shown once. Read-outs that look alike come from different tables or passages of the source."}
{"binder": "401.11 (antibody, V domains shown) VH: QVQLVGSGGGLVKPGRSLRLSCAASGFTFDDYAMHWVRQAPGKGLEWVATIIWNSAIIGYADSVKGRFIVSRDNAKNSLYLQMNSLRAEDMALYYCAKDMCSSSGCPDGYFDSWGQGTLVTVSS VL: DIQMTQSPSSVSASVGDRVTITCRASQHISSWLAWYQQKPGKAPNLLIYAASSLQSGVSSRFSGSGSGTDFTLTISSLQPEDFATYYCQQANRFPLTFGGGTKLEIKR", "values": [{"measurement": "fold potency against 51.1, IL-2 release", "setting": "[1]", "value": "~15", "unit": "fold"}, {"measurement": "fold potency against antibody 42 (C24:1 βGluCer)", "setting": "[1]", "value": "≤ 58", "unit": "fold"}, {"measurement": "fold potency against antibody 42 (THP-1 assay)", "setting": "[1]", "value": "≤ 114", "unit": "fold"}, {"measurement": "fold potency against antibody 42 (moDC assay)", "setting": "[1]", "value": "≤ 200", "unit": "fold"}, {"measurement": "fold potency against antibody 42, IL-2 release", "setting": "[1]", "value": "~20", "unit": "fold"}, {"measurement": "fold potency against antibody 51.1 (C24:1 βGluCer)", "setting": "[1]", "value": "≤ 47", "unit": "fold"}, {"measurement": "IL-2 release EC50 (U-937 + NKTCR cell line)", "setting": "[2]", "value": 5.3, "unit": "ng/mL"}, {"measurement": "IFN-γ EC50 (THP-1)", "setting": "[3]", "value": 3.8, "unit": "ng/mL"}, {"measurement": "IL-4 EC50 (THP-1)", "setting": "[3]", "value": 1.9, "unit": "ng/mL"}, {"measurement": "IL-5 EC50 (THP-1)", "setting": "[3]", "value": 1.7, "unit": "ng/mL"}, {"measurement": "IL-13 EC50 (THP-1)", "setting": "[3]", "value": 2.5, "unit": "ng/mL"}, {"measurement": "IFN-γ EC50 (primary CD14+ cells)", "setting": "[4]", "value": 6.8, "unit": "ng/mL"}, {"measurement": "IL-4 EC50 (primary CD14+ cells)", "setting": "[4]", "value": 5.9, "unit": "ng/mL"}, {"measurement": "IL-5 EC50 (primary CD14+ cells)", "setting": "[4]", "value": 6.2, "unit": "ng/mL"}, {"measurement": "IL-13 EC50 (primary CD14+ cells)", "setting": "[4]", "value": 12.1, "unit": "ng/mL"}, {"measurement": "NKT IFN-γ EC50 (THP-1)", "setting": "[5]", "value": 3.75, "unit": "ng/mL"}, {"measurement": "NKT IFN-γ EC50 (moDC)", "setting": "[5]", "value": 0.857, "unit": "ng/mL"}, {"measurement": "NKT IFN-γ EC50 (THP-1)", "setting": "[6]", "value": 3.75, "unit": "ng/mL"}, {"measurement": "NKT IFN-γ EC50 (moDC)", "setting": "[6]", "value": 0.857, "unit": "ng/mL"}, {"measurement": "NKT IL-4 EC50 (THP-1)", "setting": "[6]", "value": 2.88, "unit": "ng/mL"}, {"measurement": "NKT IL-4 EC50 (moDC)", "setting": "[6]", "value": 6.86, "unit": "ng/mL"}, {"measurement": "NKT IL-4 EC50 (moDC)", "setting": "[7]", "value": "7.63 ng/mL and 6.54 ng/mL"}, {"measurement": "NKT IL-13 EC50 (moDC)", "setting": "[7]", "value": "22.8 ng/mL and 19.6 ng/mL"}, {"measurement": "NKT IFN-γ EC50 (moDC)", "setting": "[8]", "value": 39.4, "unit": "ng/mL"}, {"measurement": "NKT IL-4 EC50 (moDC)", "setting": "[8]", "value": 17.3, "unit": "ng/mL"}, {"measurement": "NKT IL-5 EC50 (moDC)", "setting": "[8]", "value": 47.5, "unit": "ng/mL"}, {"measurement": "NKT IL-13 EC50 (moDC)", "setting": "[8]", "value": 83.1, "unit": "ng/mL"}, {"measurement": "NKT TNF EC50 (moDC)", "setting": "[8]", "value": 16.9, "unit": "ng/mL"}, {"measurement": "NKT IFN-γ EC50 (THP-1)", "setting": "[9]", "value": 55.2, "unit": "ng/mL"}, {"measurement": "NKT IL-4 EC50 (THP-1)", "setting": "[9]", "value": 2.98, "unit": "ng/mL"}, {"measurement": "NKT IL-5 EC50 (THP-1)", "setting": "[9]", "value": 6.96, "unit": "ng/mL"}, {"measurement": "NKT IL-13 EC50 (THP-1)", "setting": "[9]", "value": 27.2, "unit": "ng/mL"}, {"measurement": "NKT TNF EC50 (THP-1)", "setting": "[9]", "value": 9.18, "unit": "ng/mL"}, {"measurement": "NKT IFN-γ EC50 (moDC)", "setting": "[10]", "value": 12.4, "unit": "ng/mL"}, {"measurement": "NKT IL-4 EC50 (moDC)", "setting": "[10]", "value": 1.98, "unit": "ng/mL"}, {"measurement": "NKT IL-5 EC50 (moDC)", "setting": "[10]", "value": 2.25, "unit": "ng/mL"}, {"measurement": "NKT IL-13 EC50 (moDC)", "setting": "[10]", "value": 2.36, "unit": "ng/mL"}, {"measurement": "NKT IFN-γ EC50 (THP-1)", "setting": "[11]", "value": 2.33, "unit": "ng/mL"}, {"measurement": "NKT IFN-γ EC50 (moDC)", "setting": "[11]", "value": 23.5, "unit": "ng/mL"}, {"measurement": "NKT IL-4 EC50 (THP-1)", "setting": "[11]", "value": 1.36, "unit": "ng/mL"}, {"measurement": "NKT IL-4 EC50 (moDC)", "setting": "[11]", "value": 12.8, "unit": "ng/mL"}, {"measurement": "NKT IL-13 EC50 (THP-1)", "setting": "[11]", "value": 3.29, "unit": "ng/mL"}, {"measurement": "IFN-γ EC50 (C24:1 βGluCer, moDC)", "setting": "[12]", "value": 2.38, "unit": "ng/mL"}, {"measurement": "IL-4 EC50 (C24:1 βGluCer, moDC)", "setting": "[12]", "value": 1.45, "unit": "ng/mL"}, {"measurement": "IL-5 EC50 (C24:1 βGluCer, moDC)", "setting": "[12]", "value": 1.23, "unit": "ng/mL"}, {"measurement": "IL-13 EC50 (C24:1 βGluCer, moDC)", "setting": "[12]", "value": 5.55, "unit": "ng/mL"}, {"measurement": "TNF-α EC50 (C24:1 βGluCer, moDC)", "setting": "[12]", "value": 1.79, "unit": "ng/mL"}, {"measurement": "EC50", "setting": "[13]", "value": 284, "unit": "ng/mL"}]}
{"binder": "FAb 401.11.165 (Fab, V domains shown, Made by papain digest of the IgG4) VH: EVQLVESGGGLVQPGRSLRLSCAASGFTFDDYAMHWVRQAPGKGLEWVATIIWNSAIIGYADSVKGRFIVSRDNAKNSLYLQMNSLRAEDTALYYCAKDMCSSGGCPDGYFDSWGQGTLVTVSS VL: DIQMTQSPSSVSASVGDRVTITCRASQHISSWLAWYQQKPGKAPKLLIYAASSLQSGVPSRFSGSGSGTDFTLTISSLQPEDFATYYCQQANRFPLTFGGGTKLEIKR", "values": [{"measurement": "EC50 (read off the curve)", "setting": "[14]", "value": "~60", "unit": "ng/mL"}]}
